Source: patent US20060084085

How the values were obtained:
[1] = target: T1, Ku70 peptide 16 (amino acids 325-341)
T1 chain: RQIILEKEETEELKRFD

[2] = target: T2, peptide 29 variant that retained K542 (KRRR)
T2 chain: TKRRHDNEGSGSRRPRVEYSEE

[3] = target: T3, Ku70 peptide 29 (amino acids 541-562)
T3 chain: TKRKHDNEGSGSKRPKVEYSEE

[4] = target: T4, peptide 29 variant that retained K553 (RRKR)
T4 chain: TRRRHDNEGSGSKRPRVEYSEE

[5] = target: recombinant Ku70/80 complex, P13010
[6] = target: T5, Ku70 peptide 15 (amino acids 310-322)
T5 chain: LLLPSDTKRSQIY

[7] = target: T6, Ku70 peptide 8 (amino acids 157-173)
T6 chain: VQFKMSHKRIMLFTNED

[8] = target: T7, Ku70 peptide 3 (amino acids 44-58)
T7 chain: ASKAMFESQSEDELT

[9] = target: acetylated Ku70-K331 peptide
[10] = target: T8, acetylated Ku70 K539 peptide DYNPEGK-AcVTKRKC
T8 chain: DYNPEGKVTKRKC

[11] = target: T9, acetylated Ku70 K542 peptide PEGKVTK-AcRKHDNC
T9 chain: PEGKVTKRKHDNC

recombinant Ku70/80 complex, P13010, sequence (chain, as listed by the source, chain 1 of 2): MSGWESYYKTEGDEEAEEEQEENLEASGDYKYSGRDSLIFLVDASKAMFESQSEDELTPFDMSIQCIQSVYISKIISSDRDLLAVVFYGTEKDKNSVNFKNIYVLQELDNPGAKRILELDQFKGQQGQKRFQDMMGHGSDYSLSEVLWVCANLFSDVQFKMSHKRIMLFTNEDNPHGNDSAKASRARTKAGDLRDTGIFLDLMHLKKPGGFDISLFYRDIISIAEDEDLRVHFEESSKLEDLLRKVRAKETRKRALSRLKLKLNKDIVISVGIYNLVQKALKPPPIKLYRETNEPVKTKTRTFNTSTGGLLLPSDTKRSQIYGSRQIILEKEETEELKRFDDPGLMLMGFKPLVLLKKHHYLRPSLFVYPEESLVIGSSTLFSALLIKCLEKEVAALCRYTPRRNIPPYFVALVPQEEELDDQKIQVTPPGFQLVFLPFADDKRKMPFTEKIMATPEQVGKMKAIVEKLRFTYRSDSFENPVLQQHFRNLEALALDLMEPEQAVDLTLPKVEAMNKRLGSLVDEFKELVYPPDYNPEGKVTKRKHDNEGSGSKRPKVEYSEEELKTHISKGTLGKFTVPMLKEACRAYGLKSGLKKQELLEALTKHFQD
recombinant Ku70/80 complex, P13010, sequence (P13010 whole entry, chain 2 of 2, the tested form may be a part): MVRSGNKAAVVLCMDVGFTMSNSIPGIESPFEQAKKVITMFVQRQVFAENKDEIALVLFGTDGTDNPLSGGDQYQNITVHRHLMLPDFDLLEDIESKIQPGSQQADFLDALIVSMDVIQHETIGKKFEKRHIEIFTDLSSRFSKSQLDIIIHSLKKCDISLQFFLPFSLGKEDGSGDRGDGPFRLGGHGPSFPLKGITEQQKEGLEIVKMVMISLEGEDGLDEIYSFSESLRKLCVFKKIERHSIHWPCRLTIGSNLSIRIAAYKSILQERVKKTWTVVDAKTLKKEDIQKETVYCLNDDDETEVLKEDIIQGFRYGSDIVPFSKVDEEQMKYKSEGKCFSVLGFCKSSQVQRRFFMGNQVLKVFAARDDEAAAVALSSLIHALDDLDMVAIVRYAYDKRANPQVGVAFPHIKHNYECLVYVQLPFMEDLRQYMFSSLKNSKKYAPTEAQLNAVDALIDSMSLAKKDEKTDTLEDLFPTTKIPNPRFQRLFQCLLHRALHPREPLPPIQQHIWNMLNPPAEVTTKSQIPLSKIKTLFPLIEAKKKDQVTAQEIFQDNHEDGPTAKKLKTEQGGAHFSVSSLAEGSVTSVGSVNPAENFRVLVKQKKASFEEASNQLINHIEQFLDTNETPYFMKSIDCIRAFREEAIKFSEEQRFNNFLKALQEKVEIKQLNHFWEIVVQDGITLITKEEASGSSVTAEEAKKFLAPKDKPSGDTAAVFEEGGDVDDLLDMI

B1: recombinant histone acetyltransferase (HAT) domain of CBP (protein)
chain: LEALYRQDPESLPFRQPVDPQLLGIPDYFDIVKNPMDLSTIKRKLDTGQYQEPWQYVDDVWLMFNNAWLYNRKTSRVYKFCSKLAEVFEQEIDPVMQSLGYCCGRKYEFSPQTLCCYGKQLCTIPRDAAYYSYQNRYHFCEKCFTEIQGENVTLGDDPSQPQTTISKDQFEKKKNDTLDPEPFVDCKECGRKMHQICVLHYDIIWPSGFVCDNCLKKTGRPRKENKFSAKRLQTTRLGNHLEDRVNKFLRRQNHPEAGEVFVRVVASSDKTVEVKPGMKSRFVDSGEMSESFPYRTKALFAFEEIDGVDVCFFGMHVQEYGSDCPPPNTRRVYISYLDSIHFFRPRCLRTAVYHEILIGYLEYVKKLGYVTGHIWACPPSEGDDYIFHCHPPDQKIPKPKRLQEWYKKMLDKAFAERIIHDYKDIFKQATEDRLTSAKELPYFEGDFWPNVLEESIKELEQEEEERKKEESTAASETTEGSQGDSKNAKKKNNKKTNKNKSSISRANKKKPSMPNVSNDLSQKLYATMEKHKEVFFVIHLHAGPVINTLPPIVDPDPLLSCDLMDGRDAFLTLARDKHWEFSSLRRSKWSTLCMLVELHTQGQDRFVYTCNECKHHVETRWHCTVCEDYDLCINCYNTKSHAHKMVKWGLGLDDEGSSQGE
[1]
  in vitro acetylation of Ku70 peptides: only two (16 and 29) were strongly acetylated by both PCAF and CBP
[2]
  in vitro acetylation of peptide 29 variants: the peptide that retained K542 (KRRR) was the preferred target of both PCAF and CBP and was acetylated to almost the same extent as the original peptide 29 (KKKK)
[3]
  in vitro acetylation of Ku70 peptides: only two (16 and 29) were strongly acetylated by both PCAF and CBP
[4]
  in vitro acetylation of peptide 29 variants: K553 (RRKR) was also weakly acetylated by PCAF and CBP
[5]
  in vitro acetylation (3H-acetyl-CoA, SDS-PAGE, autoradiography): a strongly labeled band corresponding to the size of Ku70 was observed in each of the complete acetyltransferase reactions; Based on the intensity of the bands, CBP has the strongest preference for Ku70

B2: recombinant histone acetyltransferase (HAT) domain of PCAF (protein)
chain: MLEEEVYSQNSPIWDQDFLSASSRTSQLGIQTVINPPPVAGTISYNSTSSSLEQPNAGSSSPACKASSGLEANPGEKRKMTDSHVLEEAKKPRVMGDIPMELINEVMSTITDPAAMLGPETNFLSAHSARDEAARLEERRGVIEFHVVGNSLNQKPNKKILMWLVGLQNVFSHQLPRMPKEYITRLVFDPKHKTLALIKDGRVIGGICFRMFPSQGFTEIVFCAVTSNEQVKGYGTHLMNHLKEYHIKHDILNFLTYADEYAIGYFKKQGFSKEIKIPKTKYVGYIKDYEGATLMGCELNPRIPYTEFSVIIKKQKEIIKKLIERKQAQIRKVYPGLSCFKDGVRQIPIESIPGIRETGWKPSGKEKSKEPRDPDQLYSTLKSILQQVKSHQSAWPFMEPVKRTEAPGYYEVIRFPMDLKTMSERLKNRYYVSKKLFMADLQRVFTNCKEYNPPESEYYKCANILEKFFFSKIKEAGLIDK
[1]
  Relative Intensity of Acetylation: +++
[2]
  in vitro acetylation of peptide 29 variants: the peptide that retained K542 (KRRR) was the preferred target of both PCAF and CBP and was acetylated to almost the same extent as the original peptide 29 (KKKK)
[6]
  Relative Intensity of Acetylation: +++
[7]
  Relative Intensity of Acetylation: ++
[3]
  Relative Intensity of Acetylation: +++++
[8]
  Relative Intensity of Acetylation: +
[4]
  in vitro acetylation of peptide 29 variants: K553 (RRKR) was also weakly acetylated by PCAF and CBP
[5]
  in vitro acetylation (3H-acetyl-CoA, SDS-PAGE, autoradiography): a strongly labeled band corresponding to the size of Ku70 was observed in each of the complete acetyltransferase reactions

B3: human SIRT1 (protein)
chain: MADEAALALQPGGSPSAAGADREAASSPAGEPLRKRPRRDGPGLERSPGEPGGAAPEREVPAAARGCPGAAAAALWREAEAEAAAAGGEQEAQATAAAGEGDNGPGLQGPSREPPLADNLYDEDDDDEGEEEEEAAAAAIGYRDNLLFGDEIITNGFHSCESDEEDRASHASSSDWTPRPRIGPYTFVQQHLMIGTDPRTILKDLLPETIPPPELDDMTLWQIVINILSEPPKRKKRKDINTIEDAVKLLQECKKIIVLTGAGVSVSCGIPDFRSRDGIYARLAVDFPDLPDPQAMFDIEYFRKDPRPFFKFAKEIYPGQFQPSLCHKFIALSDKEGKLLRNYTQNIDTLEQVAGIQRIIQCHGSFATASCLICKYKVDCEAVRGDIFNQVVPRCPRCPADEPLAIMKPEIVFFGENLPEQFHRAMKYDKDEVDLLIVIGSSLKVRPVALIPSSIPHEVPQILINREPLPHLHFDVELLGDCDVIINELCHRLGGEYAKLCCNPVKLSEITEKPPRTQKELAYLSELPPTPLHVSEDSSSPERTSPPDSSVIVTLLDQAAKSNDDLDVSESKGCMEEKPQEVQTSRNVESIAEQMENPDLKNVGSSTGEKNERTSVAGTVRKCWPNRVAKEQISRRLDGNQYLFLPPNRYIFHGAEVYSDSEDDVLSSSSCGSNSDSGTCQSPSLEEPMEDESEIEEFYNGLEDEPDVPERAGGAGFGTDGDDQEAINEAISVKQEVTDMNYPSNKS
[9]
  deacetylation of acetylated Ku70 peptide by SIRT1: this residue is acetylated in vivo, but is both a poor substrate of SIRT1 (FIG. 8D) and plays no apparent role in Bax-mediated apoptosis in vivo
[10]
  deacetylation of acetylated Ku70 peptide by recombinant SIRT1 (slot blot with pan-acetyl-lysine antibody; fluorogenic peptide assay): SIRT1 efficiently deacetylated the two lysines in the C-terminus of Ku70 that are critical for regulating Bax
[11]
  deacetylation of acetylated Ku70 peptide by recombinant SIRT1 (slot blot with pan-acetyl-lysine antibody; fluorogenic peptide assay): SIRT1 efficiently deacetylated the two lysines in the C-terminus of Ku70 that are critical for regulating Bax

B4: recombinant histone acetyltransferase (HAT) domain of p300 (protein)
chain: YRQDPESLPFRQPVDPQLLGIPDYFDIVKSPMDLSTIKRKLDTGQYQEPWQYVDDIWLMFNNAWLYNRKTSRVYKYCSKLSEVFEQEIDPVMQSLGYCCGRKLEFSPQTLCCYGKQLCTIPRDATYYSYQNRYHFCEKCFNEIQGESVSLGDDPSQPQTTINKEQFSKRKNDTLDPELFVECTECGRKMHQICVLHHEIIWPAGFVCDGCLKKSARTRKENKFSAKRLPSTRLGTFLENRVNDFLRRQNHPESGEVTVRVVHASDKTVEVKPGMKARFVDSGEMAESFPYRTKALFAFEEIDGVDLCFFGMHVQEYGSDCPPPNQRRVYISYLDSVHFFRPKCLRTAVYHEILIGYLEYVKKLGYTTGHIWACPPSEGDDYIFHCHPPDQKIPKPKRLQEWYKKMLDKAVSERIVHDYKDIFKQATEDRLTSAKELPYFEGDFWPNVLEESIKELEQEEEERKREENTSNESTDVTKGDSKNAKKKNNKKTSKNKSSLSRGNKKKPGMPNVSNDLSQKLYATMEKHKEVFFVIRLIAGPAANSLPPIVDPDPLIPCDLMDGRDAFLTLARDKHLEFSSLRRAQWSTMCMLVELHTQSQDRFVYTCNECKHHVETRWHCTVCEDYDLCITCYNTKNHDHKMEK
[5]
  in vitro acetylation (3H-acetyl-CoA, SDS-PAGE, autoradiography): a strongly labeled band corresponding to the size of Ku70 was observed in each of the complete acetyltransferase reactions
